The nature of the series: yeast display, Sf9 membrane polyspecificity reagent, FACS + sequencing; frameworks hold sequencing errors. In short, it runs like this:
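A synthetic nanobody library was expressed on Saccharomyces cerevisiae BJ5465 by galactose induction for 36–48 hours. The library was stained for 1 hour at 4 °C with 10% biotinylated, detergent-solubilized Sf9 membrane reagent and enriched with streptavidin microbeads before FACS. Low and high (top ~1%) gates were set on anti-HA fluorescence for expression and streptavidin fluorescence for reagent binding, and each polyreactivity label reflects the gate of origin.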
“QVQLVESGGGLVQAGGSLRLICAASGRTFRIYAMGWYRQEPGKDRQLVAAIRWSGGTTYYADSVKGRFTISRDYAKNTVYLQMNSLKPDDTSVYYCAADSTNRFDYWGQGTQVTVSS”: the “polyreactivity (PSR sort gate)” value is reported as “high polyreactivity”.
The entry for “QVQLVESGGGLVQAGGSLRLICAASGRTFRYNAMGWYRQAPGKERELVAAITQSGGSTYYADSVKGRFTISRDNAKNTVYLQMNSLKPEDTAVYYCAKVRERINYDYWGQGTQVTVSS” is “low polyreactivity”; for “QVQLVESGGGLVQAGGSLRLICAASGRTFSGYAMGWYRPAPGKERELVAAINWSTGSTYYADSVKGRFTISRDNAQNTVYLQMNSLKPEDTAVYYCAAGYYYYGNGRIVQYEYWGQGTQVTVSS” it is “high polyreactivity”; for “QVQLVESGGGLVQAGGSLRLICAASGRTFSSYSMGWYRQAPGKERELVAAISRSGARTYYADSVKGRFTISRDNAKNTFYVQMNSLKPEDTAVYSCAGVTVAGYDYWGQGTEVTVSS” it is “high polyreactivity”.
Take “QVQLVESGGGLVQAGGSLRLICAASGRTFVYYAMGWYRQAPGKERELLAANSLSGSTYYAYSVKGRVTISRDNAKNTVDLHMYSLKPDDTAVYYCARPGGPDRTSSPYPYPYGYWGQGTQVTVSS”: the “polyreactivity (PSR sort gate)” value is listed as “low polyreactivity”.
The value for “QVQLVESGGGLVQAGGSLRLICAASGRTFVYYAMGWYRQAPGKERELVAAISSSGGSTSYADSVKGRFTISRDNAKNTVYLQMNSLKPEDTAFYYCAADVSVSGYYYWGQGTQVTVSS” was “high polyreactivity”.
The value for “QVQLVESGGGLVQAGGSLRLICAASGRTFYYNAMGWYRQAPGKERELVAAINRGTGGTFYADSVKGRFTISRDNAKNTVYLQMNSLKPEDTAVYYCAADLDGSSEYEYWGQGTQVTVSS” was “low polyreactivity”.
The entry for “QVQLVESGGGLVQAGGSLRLICAASGRTFYYYAMGWYRQAPGKERELVAAISKDGGRTYYADSVKGRFTISRDNAKHTVYLQMKSLKPEDTAVYYCAARYSSSRGLSSEYWGQGTQVTVSS” is “high polyreactivity”; for “QVQLVESGGGLVQAGGSLRLICAASGRYYAMGWYRQAPGKERELVAAISSGGSTNYADSVKGRFTISRDNAKNTVYLQMNSLKPEDTAVYYCAALIRQLRYYLYYYWGQGTQVTVSS” it is “high polyreactivity”; for “QVQLVESGGGLVQAGGSLRLICAASGSFFSKYAMGWYRQAPGTEREWVAAISWSGTSTYYADSVKGRFTISRDNAKITVYLQLNSLKTEDNAVSYCAASSPRSLSLLGYWGQGTQVTESS” it is “low polyreactivity”.
“QVQLVESGGGLVQAGGSLRLICAASGSIFADYVMGWYRQAPGKERELVAAITIDGGSTYYADSVKGRFTISRDNAKNTVYLQMNSLKPEDTAVYYCAADSSGRSDSWGQGTQVTVSS”: the “polyreactivity (PSR sort gate)” value was “low polyreactivity”.
The entry for “QVQLVESGGGLVQAGGSLRLICAASGSIFDYNAMGWYRQAPGKERELVAAITSTDSTYADSVKGRFTISRDNAKNTVYLQMNSLKPEDTAVYYCNARYLAWTYYYPYDYWGQGTQVTVSS” is “low polyreactivity”; for “QVQLVESGGGLVQAGGSLRLICAASGSIFFWYTMGWYRQAPGKERELVATITGSGSSTTYADSVKGRFTISRDNAKYTVYLQMNSLKPEDTAVYYCAAADIIDHSFPYDYWGQGTQVTVSS” it is “low polyreactivity”.
The value for “QVQLVESGGGLVQAGGSLRLICAASGSIFHIYMGWYRQAPGKEMEVVASISYRGGTTYYADSVKGRFTISRDNAKNSVYFQMNSLKPEDTAVYYCNVDRYFYHYGRYGHMDYWGQATQVTVSS” was “low polyreactivity”.
In the case of “QVQLVESGGGLVQAGGSLRLICAASGSIFLHYGMGWYRQAPGKERELVAAISWRCRSTYYADSVKGRFTISRDNAKNTVYLQMNSLKPEDTAVYYCNAEYAFPLSGSGYWGQGTQVTVSS”, the “polyreactivity (PSR sort gate)” value is “low polyreactivity”.
For “QVQLVESGGGLVQAGGSLRLICAASGSIFLQYTMGWYRQAPGKERELVAAITESDGSTYYADSVKGRFTISRDNAKNTVYLQMNSLKPEDTGVYYCAAEVVYFKYWDKYDYWGQGTQVTVSS”, the “polyreactivity (PSR sort gate)” value was “low polyreactivity”.
For “QVQLVESGGGLVQAGGSLRLICAASGSIFRINAMGWYRQAPGKEMELVAAITGRVGSTYYADSVKGRFTISRDNAKNTVYLQMNSLKPEDTAVYYCAARAGSSRYTREYRYDYWGQGTQVTVSS”, the “polyreactivity (PSR sort gate)” value was “high polyreactivity”.
The value for “QVQLVESGGGLVQAGGSLRLICAASGSIFTIYAMGWYRQAPGKERELVAAISYSDTSTYYADSVKGRFTISRDNAKNTVYLQMNSLKPEDTAVYYCAAEDLWYIAYWDDMDYWGQGTQVTVSS” was “low polyreactivity”.
The value for “QVQLVESGGGLVQAGGSLRLICAASGSIFTRNAMGWYRQAPGKEREFVAAISSSGVSTYYADSVKGRFTISRDNAKNTVYLQMISLKPEDTAVYYCAARWGTKSGRYDYWGQGTQVTVSS” was “high polyreactivity”.
The entry for “QVQLVESGGGLVQAGGSLRLICAASGSIFYHNGMGWYRQAPGKERELVAGISSTGSTYYADSVKGRVTLSRDNAKNTVYLQMNSLKPEDTAVYYCATDFGDIGDDAHSLGYDYWGQGTQVTVSS” is “low polyreactivity”.
Regarding “QVQLVESGGGLVQAGGSLRLICAASGSIFYRNAMGWYRQAPGKERELVAAISSDGSTNYADSVKGRFTISRDNAKNTVYLQMNSLKPEDTAVYYCAAPWTQILDYWGQGTQVTVSS”, the “polyreactivity (PSR sort gate)” value is reported as “low polyreactivity”.
For “QVQLVESGGGLVQAGGSLRLICAASGSIFYRYAMGWYRQAHGKEREFVAAITYSSRTTYYADSVQGRFTISRDNAKNTVYLQMNSLKPEDTAVYYCAAELSSSYYRRAMDYCGQGTQVTVSS”, the “polyreactivity (PSR sort gate)” value was “high polyreactivity”.
As to “QVQLVESGGGLVQAGGSLRLICAASGSIIGVNAMGWYRQAPGKERELVAAITSTGGSTYYADSVKGRFTISRDNAKNTVYLKMNSLKPEDTAVYYCNTHYSKSIGEGYAGFDYWGQGTQVTVSS”, the “polyreactivity (PSR sort gate)” value is reported as “low polyreactivity”.
The entry for “QVQLVESGGGLVQAGGSLRLICAASGSILTHYAMGWYRQAPGKERELVAAITWRGGSTYYADSVKGRFTISRDNAKNTVYLQMNSLKPEDTAVYYCNADYFGGGDYWGQGTQVTVSS” is “low polyreactivity”; for “QVQLVESGGGLVQAGGSLRLICAASGSTFAIYAMGWYRPAPGKERELVAAITGRSGSTYYADSVKGRFTISRDNAKNTVFLQMNSLKPEDTAVYYCAAQGGYRRTPYIHRDYWGQGTQVTVSS” it is “high polyreactivity”; for “QVQLVESGGGLVQAGGSLRLICAASGSTFGFNAMGWSRQAPGKERELLPLLWSGGSTYYADSVKGRFTISRDNAKNTVYLQMNSLIPEDTAVYYCNKDSPPITRYDYWGQGTQVTVSS” it is “low polyreactivity”.
“QVQLVESGGGLVQAGGSLRLICAASGSTFGYYAMGWYRKAPGKERELVAVITYSGGSTYYADSVKGRFTISRDNAKNTVNLQMNSLKPEDTSVYYCSAVIGVWYYYTYDYWGQGTQVTVSS”: the “polyreactivity (PSR sort gate)” value is on record as “low polyreactivity”.
As to “QVQLVESGGGLVQAGGSLRLICAASGSTFHAYAMGWYRQAPGKEREMVAAISWRGGSTYYADSVKGRFTISRDNAKNTVYLQMNSLKPEDTAVYYCAASVQGLFGTSGMEGVDYWGQGTQVTVSS”, the “polyreactivity (PSR sort gate)” value is “high polyreactivity”.
In the case of “QVQLVESGGGLVQAGGSLRLICAASGSTFIGNVMGWYRQAPGKERELVAAITSTDSTDYADSVKGRFTISRDNAKNTVYLQMNSLKPEDTAVYYCNAEYEYGSAYWSGVYYWYNYWGQGTQVTVSS”, the “polyreactivity (PSR sort gate)” value is recorded as “high polyreactivity”.
The entry for “QVQLVESGGGLVQAGGSLRLICAASGSTFLGYAMGWYRQAPGKERELVAAISSGGGTYADSVKGRFTISRDNAKNSVYLQMNSLKPEDTAVYYCNADYSTPYRMDYWGQGTQVTVSS” is “low polyreactivity”; for “QVQLVESGGGLVQAGGSLRLICAASGSTFPKYAMGWYRQAPGKERELVASISVTTGSTYYADSVKGRFTISRDYAKNTVYLQMNSLKPEDTAVYYCAKRTYSRKFRGAYNYWGQGTQVTVSS” it is “high polyreactivity”; for “QVQLVESGGGLVQAGGSLRLICAASGSTFPVNAMGWYRQAPGKERELVAAIRSSTGRTYYADSVKGRFTISRDNAKNTVYLQMNSLKPEDTAVYYCAAYYLGQYEYDYWGQGTQVTVSS” it is “low polyreactivity”.
Consider “QVQLVESGGGLVQAGGSLRLICAASGSTFRKYVMGWYRQAPGKERELVAAITKNGGSTYYADSVKGRFTISRDNAKNTVYLQMNSLKPEDTAVYYCATLRTGRVGNQDYDYWGQGTQVTVSS”, for which the “polyreactivity (PSR sort gate)” value was “high polyreactivity”.
The entry for “QVQLVESGGGLVQAGGSLRLICAASGSTFSQYTMGWYRQAPGKERELVAAITGSGGGTYYADSVKGRFTISRDNAKNTVYLHMESLKPVDTAVYYCAALTLNEKYTSRRGVYYWGQGSQVTVSS” is “high polyreactivity”; for “QVQLVESGGGLVQAGGSLRLICAASGSTFSYYAMGWYRQAPGKEMELVAAITSGSSTNYADSVKGRFTISRDNAKNTVYLQMNSLKPEDTAVYYCAASPQPKTYRRRYYYWGQGTQVTVSS” it is “high polyreactivity”.
Consider “QVQLVESGGGLVQAGGSLRLICAASGSTFYSYAMGWYRQVPGKERELVAAISRRGGSTYYADSVKGRFTISRDNAKNTVYLQMNSLKPEDTAVYYCAADWSRSSAEVDYWGQGTQVTVSS”, for which the “polyreactivity (PSR sort gate)” value is listed as “high polyreactivity”.
As to “QVQLVESGGGLVQAGGSLRLICAASGSTIVYYAMAWYRQAPGKERELVAAISRVGSTNYADSVKGRFTISRDNAKNTVYLQMNSLKPEDTAVYYCNAERSRRYSGWVNYAPLNYWGQGTQVTVSS”, the “polyreactivity (PSR sort gate)” value is given as “low polyreactivity”.
Take “QVQLVESGGGLVQAGGSLRLICAASGSTIYSYAMGWYRQAPGKEREMVAANDWSGTSTYYADSVKGRFTISRDNAKNTVYLQMNSLKPVDTAVYYCNARKRRSYQGGYYYSLRNEYWGQGTQVTVSS”: the “polyreactivity (PSR sort gate)” value is reported as “high polyreactivity”.
“QVQLVESGGGLVQAGGSLRLICAASGSTSLVYAMGWYRQAPGKERDLVAAISWSGGSTYYADSVKGRFTISRDNAKNTVYLQMNSLKPEDTAVYYCAAEYYGYWEYDYWGQGTQVTVSS”: the “polyreactivity (PSR sort gate)” value is “high polyreactivity”.
As for “QVQLVESGGGLVQAGGSLRLICAASGSTSPTNAMGWYRQAPGKEREFVAAIRGSGSSTRYADSVKGRFTISRDNAKNTVYLQMNSLKPEDTAVYYFDYWGQGTQVTVSS”, the “polyreactivity (PSR sort gate)” value is “low polyreactivity”.
The value for “QVQLVESGGGLVQAGGSLRLICAASGSTVYNAMGWYRQAPGTEREFVAVITDSDGSTYYADSVKGRFTISRDNAKNTVYLQMNSLKPEDTAVYDCAADDYAYSYGYWLTYDYWGQGTQVTVSS” was “low polyreactivity”.

Values taken from the nanobody polyreactivity screen of Harvey et al. (2022).
